From publication PMC7804450 come the findings set out here.

The target of the test is T1, tuberous sclerosis complex 1 (TSC1), human, subunit of the purified TSC complex (human), Q92574.
T1 chain: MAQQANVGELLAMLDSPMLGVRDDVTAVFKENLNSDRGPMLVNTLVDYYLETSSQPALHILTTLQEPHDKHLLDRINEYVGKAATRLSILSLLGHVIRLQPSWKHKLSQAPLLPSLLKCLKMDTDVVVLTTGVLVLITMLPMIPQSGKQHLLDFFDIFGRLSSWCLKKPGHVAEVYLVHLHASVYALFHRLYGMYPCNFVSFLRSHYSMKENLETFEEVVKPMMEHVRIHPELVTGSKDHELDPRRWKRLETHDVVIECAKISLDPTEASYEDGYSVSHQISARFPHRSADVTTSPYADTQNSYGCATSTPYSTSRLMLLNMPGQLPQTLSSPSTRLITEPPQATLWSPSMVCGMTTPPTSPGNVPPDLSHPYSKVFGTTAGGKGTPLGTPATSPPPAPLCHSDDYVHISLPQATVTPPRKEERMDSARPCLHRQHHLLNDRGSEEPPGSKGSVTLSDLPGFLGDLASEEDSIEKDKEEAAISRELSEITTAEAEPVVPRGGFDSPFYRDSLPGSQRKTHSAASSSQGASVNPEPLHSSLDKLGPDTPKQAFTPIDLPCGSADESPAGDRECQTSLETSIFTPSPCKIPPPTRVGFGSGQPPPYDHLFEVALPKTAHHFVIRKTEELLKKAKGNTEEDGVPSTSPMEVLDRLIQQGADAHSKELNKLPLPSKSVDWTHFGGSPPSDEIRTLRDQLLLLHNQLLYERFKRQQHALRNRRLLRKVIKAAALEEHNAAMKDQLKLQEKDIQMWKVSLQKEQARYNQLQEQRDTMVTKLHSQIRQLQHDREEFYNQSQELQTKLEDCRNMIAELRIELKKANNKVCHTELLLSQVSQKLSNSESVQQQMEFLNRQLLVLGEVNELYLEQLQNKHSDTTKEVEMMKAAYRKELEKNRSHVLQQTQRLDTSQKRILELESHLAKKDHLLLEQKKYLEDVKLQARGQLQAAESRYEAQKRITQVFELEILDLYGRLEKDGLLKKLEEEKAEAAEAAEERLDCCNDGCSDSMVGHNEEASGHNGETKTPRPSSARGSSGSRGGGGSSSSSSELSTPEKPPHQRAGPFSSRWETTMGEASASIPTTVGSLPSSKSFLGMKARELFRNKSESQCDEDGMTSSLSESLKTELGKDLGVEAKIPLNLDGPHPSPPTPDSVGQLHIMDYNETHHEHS
Nature of the test: cryo-EM structure; human TSC complex (TSC1, TSC2, TBC1D7) co-expressed in Expi293F, purified, cross-linked by Grafix (glutaraldehyde); single particle reconstruction, 4.4 Å overall, core 3.6 Å, wings 3.9 and 4.1 Å. The conditions noted are these: remark: other sources report otherwise.

B1: tuberous sclerosis complex 1 (TSC1), human, subunit of the purified TSC complex, Q92574 1-1164 (natural protein)
chain: MAQQANVGELLAMLDSPMLGVRDDVTAVFKENLNSDRGPMLVNTLVDYYLETSSQPALHILTTLQEPHDKHLLDRINEYVGKAATRLSILSLLGHVIRLQPSWKHKLSQAPLLPSLLKCLKMDTDVVVLTTGVLVLITMLPMIPQSGKQHLLDFFDIFGRLSSWCLKKPGHVAEVYLVHLHASVYALFHRLYGMYPCNFVSFLRSHYSMKENLETFEEVVKPMMEHVRIHPELVTGSKDHELDPRRWKRLETHDVVIECAKISLDPTEASYEDGYSVSHQISARFPHRSADVTTSPYADTQNSYGCATSTPYSTSRLMLLNMPGQLPQTLSSPSTRLITEPPQATLWSPSMVCGMTTPPTSPGNVPPDLSHPYSKVFGTTAGGKGTPLGTPATSPPPAPLCHSDDYVHISLPQATVTPPRKEERMDSARPCLHRQHHLLNDRGSEEPPGSKGSVTLSDLPGFLGDLASEEDSIEKDKEEAAISRELSEITTAEAEPVVPRGGFDSPFYRDSLPGSQRKTHSAASSSQGASVNPEPLHSSLDKLGPDTPKQAFTPIDLPCGSADESPAGDRECQTSLETSIFTPSPCKIPPPTRVGFGSGQPPPYDHLFEVALPKTAHHFVIRKTEELLKKAKGNTEEDGVPSTSPMEVLDRLIQQGADAHSKELNKLPLPSKSVDWTHFGGSPPSDEIRTLRDQLLLLHNQLLYERFKRQQHALRNRRLLRKVIKAAALEEHNAAMKDQLKLQEKDIQMWKVSLQKEQARYNQLQEQRDTMVTKLHSQIRQLQHDREEFYNQSQELQTKLEDCRNMIAELRIELKKANNKVCHTELLLSQVSQKLSNSESVQQQMEFLNRQLLVLGEVNELYLEQLQNKHSDTTKEVEMMKAAYRKELEKNRSHVLQQTQRLDTSQKRILELESHLAKKDHLLLEQKKYLEDVKLQARGQLQAAESRYEAQKRITQVFELEILDLYGRLEKDGLLKKLEEEKAEAAEAAEERLDCCNDGCSDSMVGHNEEASGHNGETKTPRPSSARGSSGSRGGGGSSSSSSELSTPEKPPHQRAGPFSSRWETTMGEASASIPTTVGSLPSSKSFLGMKARELFRNKSESQCDEDGMTSSLSESLKTELGKDLGVEAKIPLNLDGPHPSPPTPDSVGQLHIMDYNETHHEHS
Broadly, the stoichiometry N is a count of units in the complex or per binding partner. Molecule B1 came in with a stoichiometry N of 2.
